# Laboratory results as given in patent EP2112164A1 (Institut Pasteur Of Shanghai, dated 2009).
# B1: scFv/hinge/his-tag/DAF (anti-HIV-1 gp41 scFv derived from human monoclonal antibody TG15, human IgG3 hinge region, 6 x his tag, GPI anchor replacement signal … (scFv)
# scFv: QVQLQQWGAGLLKPSETLSLTCAVYGDSFGGHHWSWIRQPPGKGLEWIGEINFLGNTNYNPSLKSRVAISKDTSKNQFSLTLNSATAADTAVYFCARRETMETASRKRAFDIWGQGTMETVTVSAGGGGSGGGGSGGGGSAELMETTQSPPTLSASVGDRVTITCRASQSLSGWVAWYQQKPGKAPKLLIYKASTLESGVPSRFSGSGSGTVFALTISSLQPDDSATYYCQQHSAFSSTFGQGTKLEIKRTPLGDTTHTSGHHHHHHGSGTTSGTTRLLSGHTCFTLTGLLGTLVTMETGLLT
# Tests used:
# [1] = biological target: HIV-1 envelope pDOL (subtype B) (HIV-1 (subtype B)); assay: cell-based or functional assay
# [2] = biological target: HIV-1 envelope Q168 (subtype A) (HIV-1 (subtype A)); assay: cell-based or functional assay
binder,measurement,setting,value
B1,"relative luciferase activity (RLA) in a single-cycle pseudotype infectivity assay, CEMss-GPI-scFv compared to CEMss-eGFP",[1],8 fold reduction
same,"relative luciferase activity (RLA) in a single-cycle pseudotype infectivity assay, CEMss-GPI-scFv compared to CEMss-eGFP",[2],180 fold reduction
